The record followed here is PMC6449940, “The Cdc42 effectors Gic1 and Gic2 regulate polarized post-Golgi secretion” (Cell & Bioscience, 2019).

The assay has as its target T1, His6-Cdc42 (S. cerevisiae, UniProt P19073 1-191).
T1 construct: Cdc42, small GTPase, S. cerevisiae; also called Hisx6-Cdc42; Cdc42 wild type; source: bacteria, purified (Hisx6 fusion)
Description: pull-down; GST-Sec3N (a.a.71–241) on glutathione Sepharose (20 μg), His6-Cdc42 or mutant (10 μg) in the presence of GTPγS; bound protein detected with anti-Hisx6 antibody. To be noted: both partners purified.

T1 sequence (P19073 whole entry, the tested form may be a part): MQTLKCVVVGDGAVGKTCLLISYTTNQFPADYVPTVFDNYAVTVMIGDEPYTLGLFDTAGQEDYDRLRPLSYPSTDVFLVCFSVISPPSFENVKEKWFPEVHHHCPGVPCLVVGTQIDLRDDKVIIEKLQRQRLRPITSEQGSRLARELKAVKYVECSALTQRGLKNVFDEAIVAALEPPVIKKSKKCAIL

B1: GST-Sec3N (a.a.71–241) (domain or fragment, S. cerevisiae (budding yeast), UniProt P33332 71-241, looked up)
chain: SSQTSNFLAEQYERDRKAIINCCFSRPDHKTGEPPNNYITHVRIIEDSKFPSSRPPPDSKLENKKKRLLILSAKPNNAKLIQIHKARENSDGSFQIGRTWQLTELVRVEKDLEISEGFILTMSKKYYWETNSAKERTVFIKSLITLYIQTFEGHVPELVNWDLSLFYLDER
notes: Sec3, exocyst subunit, budding yeast, residues 71-241 (N-terminus, PH domain-like region); also called Amino-terminus of Sec3 (a.a.71–241); source: GST fusion protein, purified and conjugated to glutathione Sepharose
As to B1, the binding result is recorded as “binds”.
